Drawing on article PMC9288967, this text covers kobs (apparent first-order constant of cross-linking) for two substances.

The assay has as its target SARS-CoV-2 spike RBD (wild type) (SARS-CoV-2) (UniProt P0DTC2). The experiment in a line: cross-linking.

With mNb6(108FFY) (VHH), the kobs (apparent first-order constant of cross-linking) was found to be 0.244 h⁻¹.
As to mNb6(108FSY) (VHH), the kobs (apparent first-order constant of cross-linking) is 0.102 h⁻¹.
